Literature values, collected in publication PMC6238587.

Target: PDI (Homo sapiens) (UniProt P07237)
Assay: surface plasmon resonance
Settings: cited from earlier work

Sequence of PDI (Homo sapiens) (P07237 18-508): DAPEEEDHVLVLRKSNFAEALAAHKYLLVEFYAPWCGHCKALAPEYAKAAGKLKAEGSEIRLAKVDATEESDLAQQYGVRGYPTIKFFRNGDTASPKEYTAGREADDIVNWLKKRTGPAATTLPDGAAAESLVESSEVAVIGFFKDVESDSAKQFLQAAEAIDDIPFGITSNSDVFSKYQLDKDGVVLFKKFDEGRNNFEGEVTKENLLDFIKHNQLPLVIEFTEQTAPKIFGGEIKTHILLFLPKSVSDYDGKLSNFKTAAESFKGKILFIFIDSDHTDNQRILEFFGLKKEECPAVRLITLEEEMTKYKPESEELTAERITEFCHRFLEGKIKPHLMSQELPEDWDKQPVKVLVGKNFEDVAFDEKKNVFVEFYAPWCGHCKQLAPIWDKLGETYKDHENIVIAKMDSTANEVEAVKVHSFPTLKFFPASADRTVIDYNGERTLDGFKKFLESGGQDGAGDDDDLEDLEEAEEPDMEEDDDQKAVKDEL

Ero1α (from UniProt Q96HE7)
Kd: 2100 nM
